In patent US20240343781A1:

Assays:
RmYN02 = assay: ELISA
SARS-CoV = assay: ELISA
WIV1 = assay: ELISA
GX-Pangolin = assay: ELISA
SHC014 = assay: ELISA
Rf1 = assay: ELISA
Yunnan2011 = assay: ELISA
Rs4081 = assay: ELISA
BtKY72 = assay: ELISA
BM-4831 = assay: ELISA
RaTG13 = assay: ELISA
SARS-CoV-2 Spike = assay: SPR
[1] = molecular target: SARS-CoV Spike (SARS-CoV) (UniProt P59594); assay: SPR

Substance	EC50 (RmYN02) [mg/L]	EC50 (SARS-CoV) [mg/L]	EC50 (WIV1) [mg/L]	EC50 (GX-Pangolin) [mg/L]	EC50 (SHC014) [mg/L]	EC50 (Rf1) [mg/L]	EC50 (Yunnan2011) [mg/L]	EC50 (Rs4081) [mg/L]	EC50 (BtKY72) [mg/L]	EC50 (BM-4831) [mg/L]	EC50 (RaTG13) [mg/L]	Kd (SARS-CoV-2 Spike) [pM]	Kd [1] [pM]
ADG-2	> 10	0.002	0.005	0.089	0.003	> 10	> 10	> 10	0.005	0.711	> 10	0.983	
COVA1-16	> 10	> 10	> 10	0.043	0.049	7.07	> 10	> 10	> 10	> 10	0.614	1.29	19500
DH1047	0.01	0.009	0.003	0.006	0.003	> 10	0.011	0.013	0.003	0.002	0.003	1.06	
REGN10985	> 10	> 10	0.003	3.3	0.003	> 10	> 10	> 10	0.001	0.72	> 10	8.72	
S2H97	0.011	0.015	0.54	0.026	> 10	0.005	0.124	0.009	0.006	0.009	0.008	4.53	
S2X259	> 10	0.016	0.005	0.035	0.007	> 10	> 10	2.29	0.004	0.005	> 10	0.895	
S309	> 10	0.011	0.023	0.052		> 10	> 10	> 10	> 10	0.286	> 10	1.94	
